Assay results published in article PMC7927982.

Tests used:
LARP1 La-Module [1] = molecular target: T1, LARP1 La-Module (Homo sapiens, UniProt Q6PKG0-3 310-540); experiment: EMSA
LARP1 La-Module [2] = molecular target: T1, LARP1 La-Module; experiment: EMSA; remark: listed apart in the source
LARP1 La-Module [3] = molecular target: T1, LARP1 La-Module; experiment: competition

| Binder | binding result (LARP1 La-Module [1]) | other results |
| --- | --- | --- |
| AAGCGGCUGCCGAAG (ssRNA) [RPL13A 5'UTR delTOP] | no binding | – |
| CCUCUUUUCCGUGGCGCCUCGGAGGCGUUCAGCUGCUUCAAG (ssRNA) [RPS6 5'UTR] | binds | – |
| CCUUCUCCCCGGCGGUUAGUGCUGAGAGUGCGGAGUGUGUG (ssRNA) [PABPC1 42-mer] | no binding | – |
| AAGAUUUUUUGAGUAACAAAU (ssRNA) [RPS6 3'UTR] | no binding | – |
| GUGGCGCCUCGGAGGCGUUCAGCUGCUUCAAG (ssRNA) [RPS6 5'UTR delTOP] | no binding | – |
| CUCUCUUCCACAGGAGGCCUACACGCCGCCGCUUGUGCUGCAGCC (ssRNA) [RPS18 5'UTR] | no binding | – |
| AAAAAAAAAAAAAAAAAAAAAAAAA (ssRNA) [poly(A) 25-mer] | – | Kd (LARP1 La-Module [2]): 0.04 ± 0.001 µM |
| CCUUUUCCAAGCGGCUGCCGAAG (ssRNA) [RPL13A 5'UTR] | binds | – |
| GGGGGGGGGGGGGGGGGGG (ssRNA) [poly(G) 19-mer] | – | binding result (LARP1 La-Module [3]): binds |
